Values of other authors, collected in article PMC3728333, “Development of an Epidermal Growth Factor Derivative with EGFR Blocking Activity” (PLoS ONE, 2013).

How the values were obtained:
[1] = test system: EGFR-positive breast cancer cells
Text: (§1) Moreover, EGFt could also be used as a targeted toxin delivery agent. In this respect, we are currently developing ^111In–DTPA–EGFt as a potential Auger electron-emitting radiotherapeutic for EGFR-positive breast cancer.

[2] = test system: EGFR-positive breast cancer; conditions: ref [44], [45]
Text: as §1

B1: ^111In-DTPA-hEGF: ^111In-DTPA-hEGF, Kd value obtained from previous work (conjugate, UniProt P01133 23-1207, looked up)
Pro-epidermal growth factor: PQHWSCPEGTLAGNGNSTCVGPAPFLIFSHGNSIFRIDTEGTNYEQLVVDAGVSVIMDFHYNEKRIYWVDLERQLLQRVFLNGSRQERVCNIEKNVSGMAINWINEEVIWSNQQEGIITVTDMKGNNSHILLSALKYPANVAVDPVERFIFWSSEVAGSLYRADLDGVGVKALLETSEKITAVSLDVLDKRLFWIQYNREGSNSLICSCDYDGGSVHISKHPTQHNLFAMSLFGDRIFYSTWKMKTIWIANKHTGKDMVRINLHSSFVPLGELKVVHPLAQPKAEDDTWEPEQKLCKLRKGNCSSTVCGQDLQSHLCMCAEGYALSRDRKYCEDVNECAFWNHGCTLGCKNTPGSYYCTCPVGFVLLPDGKRCHQLVSCPRNVSECSHDCVLTSEGPLCFCPEGSVLERDGKTCSGCSSPDNGGCSQLCVPLSPVSWECDCFPGYDLQLDEKSCAASGPQPFLLFANSQDIRHMHFDGTDYGTLLSQQMGMVYALDHDPVENKIYFAHTALKWIERANMDGSQRERLIEEGVDVPEGLAVDWIGRRFYWTDRGKSLIGRSDLNGKRSKIITKENISQPRGIAVHPMAKRLFWTDTGINPRIESSSLQGLGRLVIASSDLIWPSGITIDFLTDKLYWCDAKQSVIEMANLDGSKRRRLTQNDVGHPFAVAVFEDYVWFSDWAMPSVMRVNKRTGKDRVRLQGSMLKPSSLVVVHPLAKPGADPCLYQNGGCEHICKKRLGTAWCSCREGFMKASDGKTCLALDGHQLLAGGEVDLKNQVTPLDILSKTRVSEDNITESQHMLVAEIMVSDQDDCAPVGCSMYARCISEGEDATCQCLKGFAGDGKLCSDIDECEMGVPVCPPASSKCINTEGGYVCRCSEGYQGDGIHCLDIDECQLGEHSCGENASCTNTEGGYTCMCAGRLSEPGLICPDSTPPPHLREDDHHYSVRNSDSECPLSHDGYCLHDGVCMYIEALDKYACNCVVGYIGERCQYRDLKWWELRHAGHGQQQKVIVVAVCVVVLVMLLLLSLWGAHYYRTQKLLSKNPKNPYEESSRDVRSRRPADTEDGMSSCPQPWFVVIKEHQDLKNGGQPVAGEDGQAADGSMQPTSWRQEPQLCGMGTEQGCWIPVSSDKGSCPQVMERSFHMPSYGTQTLEGGVEKPHSLLSANPLWQQRALDPPHQMELTQ
modifications: Pro-epidermal growth factor 111In-DTPA
cytotoxic effects in vitro [1]: potent cytotoxic effects in vitro
tumour growth inhibition in vivo [2]: tumour growth-inhibition in vivo
